In PMC7580981:

Biological target: IBV polymerase trimeric complex (Pol3): PA-His, PB1, PB2 (influenza B virus)
Test: SPR
Details: natural protein

## chicken ANP32A, purified (GST cleaved)
  Kd: 0.133 µM
